The text below walks through data of paper PMC6810841.

In this assay the target is BicDR1 E165R/E167K-GFP (mouse) (UniProt A0JNT9).
Sequence of UniProt A0JNT9 (A0JNT9 whole entry E165R/E167K): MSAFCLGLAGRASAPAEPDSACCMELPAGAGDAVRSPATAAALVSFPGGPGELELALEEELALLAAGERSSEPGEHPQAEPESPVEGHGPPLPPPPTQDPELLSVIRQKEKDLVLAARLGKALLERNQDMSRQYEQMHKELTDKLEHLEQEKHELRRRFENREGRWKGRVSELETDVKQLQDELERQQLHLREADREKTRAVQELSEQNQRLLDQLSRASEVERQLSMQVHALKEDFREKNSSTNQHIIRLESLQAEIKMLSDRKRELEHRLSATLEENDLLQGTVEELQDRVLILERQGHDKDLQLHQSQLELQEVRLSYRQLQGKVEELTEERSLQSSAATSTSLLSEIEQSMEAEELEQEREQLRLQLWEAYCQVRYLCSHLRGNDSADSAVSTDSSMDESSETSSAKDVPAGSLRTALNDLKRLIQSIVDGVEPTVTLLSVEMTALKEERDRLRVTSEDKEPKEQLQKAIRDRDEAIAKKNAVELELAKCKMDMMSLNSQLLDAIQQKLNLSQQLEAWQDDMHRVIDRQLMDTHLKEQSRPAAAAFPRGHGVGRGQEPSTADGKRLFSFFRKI

“dynein long tail (SNAP-DYNC1H1 1-1,074-GST with associated chains) (from UniProt Q14204;O43237;P63172;P63167;Q9NP97) (complex)” registered a reduction of recruitment against BicDR1 of 50%.
